Data as given in US20040047860A1 (published 2004).

How the values were obtained:
Rec pig MCP-1 = Rec pig MCP-1 (pig, UniProt P42831 24-99); test: BIAcore, 5 nM chemokine over ABN912, bound amount after 8 min, n = 3
Rec dog MCP-1 = Rec dog MCP-1 (dog, UniProt P52203 24-101); test: as above
Rec guinea pig MCP-1 = Rec guinea pig MCP-1 (guinea pig, UniProt Q08782 24-120, limits assumed); test: as above
Rec mouse JE/MCP-1 = molecular target: T1, Rec mouse JE/MCP-1 (mouse, UniProt P10148 24-96, limits assumed); test: as above
T1 construct: also called mouse MCP-1
T1 sequence (P10148 24-96 limits assumed): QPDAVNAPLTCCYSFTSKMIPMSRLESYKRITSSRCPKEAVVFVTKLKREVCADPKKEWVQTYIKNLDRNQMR

Rec rat MCP-1 = Rec rat MCP-1 (rat, UniProt P14844 24-148, limits assumed); test: as above
Chain of Rec rat MCP-1 (P14844 24-148 limits assumed): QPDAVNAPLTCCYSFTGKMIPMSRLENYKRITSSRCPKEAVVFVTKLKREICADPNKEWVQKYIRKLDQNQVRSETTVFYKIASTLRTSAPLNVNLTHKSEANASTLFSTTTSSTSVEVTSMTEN

Rec rabbit MCP-1 = Rec rabbit MCP-1 (rabbit, UniProt P28292 24-125, limits assumed); test: as above
Chain of Rec rabbit MCP-1 (P28292 24-125 limits assumed): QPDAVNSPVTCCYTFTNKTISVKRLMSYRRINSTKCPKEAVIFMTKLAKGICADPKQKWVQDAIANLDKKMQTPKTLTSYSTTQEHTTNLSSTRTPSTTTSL

[1] = molecular target: recombinant human MCP-1 (human) (UniProt P13500); test: BIAcore, ABN912 immobilised, recombinant human MCP-1 in solution, n = 30
Chain of recombinant human MCP-1 (human) (P13500 24-99 limits assumed): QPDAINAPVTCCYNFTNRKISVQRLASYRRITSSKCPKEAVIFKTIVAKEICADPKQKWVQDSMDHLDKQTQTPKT

MCP-1 mutant K49A = molecular target: T2, MCP-1 mutant K49A (human, UniProt P13500 24-99); test: BIAcore, mutant MCP-1 (0.75 to 4 nM) over ABN912 captured on anti-Fcγ
T2 construct: also called K49 to alanine
T2 sequence (P13500 24-99 K72A limits assumed): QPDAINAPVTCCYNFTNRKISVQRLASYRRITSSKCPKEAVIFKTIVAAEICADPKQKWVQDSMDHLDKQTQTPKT

[2] = molecular target: recombinant human MCP-1 (human) (UniProt P13500); test: SPA, inhibition of (125-I)-MCP-1 binding to membranes of CCR2B expressing CHO cells (CHO#84), three independent experiments
rh MIP-1α = molecular target: T3, rh MIP-1α (human, UniProt P10147 27-92, limits assumed); test: BIAcore, 5 nM chemokine over ABN912, bound amount after 8 min, n = 3
T3 sequence (looked up): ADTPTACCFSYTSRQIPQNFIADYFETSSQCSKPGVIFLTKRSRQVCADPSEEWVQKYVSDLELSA

rh MCP-4 = rh MCP-4 (human, UniProt Q99616 24-98); test: as above
Chain of rh MCP-4 (Q99616 24-98 limits assumed): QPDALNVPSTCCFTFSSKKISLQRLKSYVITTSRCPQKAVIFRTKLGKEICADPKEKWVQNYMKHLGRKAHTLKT

rh LEC = molecular target: T4, rh LEC (human, UniProt O15467 24-120); test: as above
T4 sequence (looked up): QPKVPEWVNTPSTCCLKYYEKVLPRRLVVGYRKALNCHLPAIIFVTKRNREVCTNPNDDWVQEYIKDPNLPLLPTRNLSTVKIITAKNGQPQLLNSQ

rh MCP-2 = molecular target: T5, rh MCP-2 (human, UniProt P80075 24-99); test: as above
T5 sequence (looked up): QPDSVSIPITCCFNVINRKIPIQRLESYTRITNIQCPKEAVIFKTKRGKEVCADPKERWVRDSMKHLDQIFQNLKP

rh MIP-1β = molecular target: T6, rh MIP-1β (human, UniProt P13236 24-92); test: as above
T6 sequence (looked up): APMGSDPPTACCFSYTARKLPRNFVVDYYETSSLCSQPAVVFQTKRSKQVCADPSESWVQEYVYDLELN

[3] = molecular target: T7, recombinant human eotaxin-1 (human, UniProt P51671 24-97); test: as above
T7 construct: also called rh eotaxin
T7 sequence (P51671 24-97 limits assumed): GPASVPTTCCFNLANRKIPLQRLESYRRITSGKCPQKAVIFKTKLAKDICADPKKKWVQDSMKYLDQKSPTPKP

rh RANTES = molecular target: T8, rh RANTES (human, UniProt P13501 24-91); test: as above
T8 sequence (looked up): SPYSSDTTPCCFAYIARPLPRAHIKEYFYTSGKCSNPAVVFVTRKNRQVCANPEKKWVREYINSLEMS

rh MCP-3 = rh MCP-3 (human, UniProt P80098 24-99); test: as above
Chain of rh MCP-3 (P80098 24-99 limits assumed): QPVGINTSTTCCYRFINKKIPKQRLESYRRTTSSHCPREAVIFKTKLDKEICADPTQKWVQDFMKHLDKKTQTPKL

[4] = molecular target: recombinant human MCP-1 (human) (UniProt P13500); test: BIAcore, 5 nM chemokine over ABN912, bound amount after 8 min

Chain of Rec pig MCP-1 (P42831 24-99 limits assumed): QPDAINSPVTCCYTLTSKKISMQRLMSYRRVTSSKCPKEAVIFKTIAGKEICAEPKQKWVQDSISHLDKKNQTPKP
Chain of Rec guinea pig MCP-1 (Q08782 24-120 limits assumed): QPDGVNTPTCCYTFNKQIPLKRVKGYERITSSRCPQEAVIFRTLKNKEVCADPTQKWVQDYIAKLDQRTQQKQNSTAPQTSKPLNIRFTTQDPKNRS
Chain of Rec dog MCP-1 (P52203 24-101 limits assumed): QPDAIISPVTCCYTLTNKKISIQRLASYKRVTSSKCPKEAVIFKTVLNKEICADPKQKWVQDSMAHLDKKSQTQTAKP

B1: ABN912 antibody (human IgG4/κ anti-human MCP-1 antibody) (antibody, V domains shown)
VH: EVQLVQSGGGLVQPGGSLRLSCAASGFTFSHYWMSWVRQAPGKGLEWLANIEQDGSEKYYVDSVKGRFTISRDNAKNSLYLQMNSLRAEDTAVYFCARDLEGLHGDGYFDLWGRGTLVTVSS
VL: AIQLTQSPSSLSASVGDRVILTCRASQGVSSALAWYQQKPGKAPKLLIYDASSLESGVPSRFSGSGSGPDFTLTISSLQPEDFATYFCQQFNSYPLTFGGGTKVEIK
Percent binding of ABN912 (compared to recombinant human MCP-1) (Rec pig MCP-1): 0.5% | Percent binding of ABN912 (compared to recombinant human MCP-1) (Rec dog MCP-1): 1.3% | Percent binding of ABN912 (compared to recombinant human MCP-1) (Rec guinea pig MCP-1): 2.3% | Percent binding of ABN912 (compared to recombinant human MCP-1) (Rec mouse JE/MCP-1): -0.4% | Percent binding of ABN912 (compared to recombinant human MCP-1) (Rec rat MCP-1): -0.2% | Percent binding of ABN912 (compared to recombinant human MCP-1) (Rec rabbit MCP-1): 0.9% | Kd [1]: 0.043 nM | koff [1]: 0.0005 s⁻¹ | kon [1]: 1.3e+07 M⁻¹ s⁻¹ | fold decrease of affinity (against MCP-1) (MCP-1 mutant K49A): 133 fold | IC50 [2]: 0.461 nM | Binding to ABN912 (percent compared to recombinant human MCP-1) (rh MIP-1α): -2.8% | Binding to ABN912 (percent compared to recombinant human MCP-1) (rh MCP-4): -2.4% | Binding to ABN912 (percent compared to recombinant human MCP-1) (rh LEC): -2.8% | Binding to ABN912 (percent compared to recombinant human MCP-1) (rh MCP-2): 6.2% | Binding to ABN912 (percent compared to recombinant human MCP-1) (rh MIP-1β): -2.9% | Binding to ABN912 (percent compared to recombinant human MCP-1) [3]: 52.6% | Binding to ABN912 (percent compared to recombinant human MCP-1) (rh RANTES): -2.7% | Binding to ABN912 (percent compared to recombinant human MCP-1) (rh MCP-3): 4.3% | Binding to ABN912 (percent compared to recombinant human MCP-1) [4]: 100% | Percent binding of ABN912 (compared to recombinant human MCP-1) [4]: 100%
